Results as given in IntAct's records for PubMed 21529711.

B1: Protein nutcracker (Drosophila melanogaster (Fruit fly)), Q8SX86 (parent)
chain: MSDTKSEIEGFIAIPTTSGEQQQQQPQQQQNEQQVVGTKDIKAPDQVGKKQRPRLIQEKSTQETNPLILEHATLEWVPQHMDKLLNQYQECRKMPAAEWLHLLTYLVALECGFVEEETFAQKRHLIQPVPSFSSFHAQNVRILSEQPARYEVCFNDTVYIMRLRTLLDKHAPEETSLVAALQCRLMAVSLGDQLMITLSPAPPSKEPGYSVSLSIGRYVLNIQAKNKPIYHRFRKLDELSYQLKQHLFQPMRSQQLMQMEMKLQPSLLGLPDELYFEIFRYLDKSQLNVVARVNRHLHFYSKEVERKRLKGGRS
partner: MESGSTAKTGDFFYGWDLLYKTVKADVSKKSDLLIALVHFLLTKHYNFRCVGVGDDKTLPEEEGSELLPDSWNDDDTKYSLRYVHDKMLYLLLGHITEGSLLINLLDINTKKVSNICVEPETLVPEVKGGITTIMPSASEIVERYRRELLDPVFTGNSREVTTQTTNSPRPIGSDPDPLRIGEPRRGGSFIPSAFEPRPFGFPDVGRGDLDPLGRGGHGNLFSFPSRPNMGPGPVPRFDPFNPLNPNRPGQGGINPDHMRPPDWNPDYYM

Variants of: B1
Conditions: with psmf1_drome PI31, Q9V637

Q: Which “effect of a mutation on the interaction” value does the source give for MSDTKSEIEGFIAIPTTSGEQQQQQPQQQQNEQQVVGTKDIKAPDQVGKKQRPRLIQEKSTQETNPLILEHATLEWVPQHMDKLLNQYQECRKMPAAEWLHLLTYLVALECGFVEEETFAQKRHLIQPVPSFSSFHAQNVRILSEQPARYEVCFNDTVYIMRLRTLLDKHAPEETSLVAALQCRLMAESLGDQLMITLSPAPPSKEPGYSVSLSIGRYVLNIQAKNKPIYHRFRKLDELSYQLKQHLFQPMRSQQLMQMEMKLQPSLLGLPDELYFEIFRYLDKSQLNVVARVNRHLHFYSKEVERKRLKGGRS [V188E] here?
A: Its value is “decreasing interaction”.
